Results published in paper PMC3929087.

What was measured:
[1] = cellular trafficking, method not given; details: glycan lost; control: wild type
[2] = secretion into CHO culture medium (unpublished data); details: glycan lost; control: wild type

B1: angiotensin I-converting enzyme (somatic ACE): N1162Q (protein)
parent chain: MGAASGRRGPGLLLPLPLLLLLPPQPALALDPGLQPGNFSADEAGAQLFAQSYNSSAEQVLFQSVAASWAHDTNITAENARRQEEAALLSQEFAEAWGQKAKELYEPIWQNFTDPQLRRIIGAVRTLGSANLPLAKRQQYNALLSNMSRIYSTAKVCLPNKTATCWSLDPDLTNILASSRSYAMLLFAWEGWHNAAGIPLKPLYEDFTALSNEAYKQDGFTDTGAYWRSWYNSPTFEDDLEHLYQQLEPLYLNLHAFVRRALHRRYGDRYINLRGPIPAHLLGDMWAQSWENIYDMVVPFPDKPNLDVTSTMLQQGWNATHMFRVAEEFFTSLELSPMPPEFWEGSMLEKPADGREVVCHASAWDFYNRKDFRIKQCTRVTMDQLSTVHHEMGHIQYYLQYKDLPVSLRRGANPGFHEAIGDVLALSVSTPEHLHKIGLLDRVTNDTESDINYLLKMALEKIAFLPFGYLVDQWRWGVFSGRTPPSRYNFDWWYLRTKYQGICPPVTRNETHFDAGAKFHVPNVTPYIRYFVSFVLQFQFHEALCKEAGYEGPLHQCDIYRSTKAGAKLRKVLQAGSSRPWQEVLKDMVGLDALDAQPLLKYFQPVTQWLQEQNQQNGEVLGWPEYQWHPPLPDNYPEGIDLVTDEAEASKFVEEYDRTSQVVWNEYAEANWNYNTNITTETSKILLQKNMQIANHTLKYGTQARKFDVNQLQNTTIKRIIKKVQDLERAALPAQELEEYNKILLDMETTYSVATVCHPNGSCLQLEPDLTNVMATSRKYEDLLWAWEGWRDKAGRAILQFYPKYVELINQAARLNGYVDAGDSWRSMYETPSLEQDLERLFQELQPLYLNLHAYVRRALHRHYGAQHINLEGPIPAHLLGNMWAQTWSNIYDLVVPFPSAPSMDTTEAMLKQGWTPRRMFKEADDFFTSLGLLPVPPEFWNKSMLEKPTDGREVVCHASAWDFYNGKDFRIKQCTTVNLEDLVVAHHEMGHIQYFMQYKDLPVALREGANPGFHEAIGDVLALSVSTPKHLHSLNLLSSEGGSDEHDINFLMKMALDKIAFIPFSYLVDQWRWRVFDGSITKENYNQEWWSLRLKYQGLCPPVPRTQGDFDPGAKFHIPSSVPYIRYFVSFIIQFQFHEALCQAAGHTGPLHKCDIYQSKEAGQRLATAMKLGFSRPWPEAMQLITGQPNMSASAMLSYFKPLLDWLRTENELHGEKLGWPQYNWTPNSARSEGPLPDSGRVSFLGLDLDAQQARVGQWLLLFLGIALLVATLGLSQRLFSIRHRSLHRHSHGPQFGSEVELRHS
localisation_or_trafficking [1]: no change
expression_or_secretion [2]: no change
